Reference: IntAct's records for PubMed 28712572

Target: gbrap_human GABARAP (UniProt O95166)
Sequence (O95166 whole entry): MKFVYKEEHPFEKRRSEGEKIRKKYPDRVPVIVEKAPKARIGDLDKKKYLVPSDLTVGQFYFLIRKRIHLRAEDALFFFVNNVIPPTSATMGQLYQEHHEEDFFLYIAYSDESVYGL

| Substance | effect of a mutation on the interaction |
| --- | --- |
| Pericentriolar material 1 protein (Homo sapiens), Q15154 K1965P | disrupting interaction strength |
| Pericentriolar material 1 protein (Homo sapiens), Q15154 F1963W | with no effect |
| Pericentriolar material 1 protein (Homo sapiens), Q15154 E1960D | with no effect |
| Pericentriolar material 1 protein (Homo sapiens), Q15154 D1968S | with no effect |
| Pericentriolar material 1 protein (Homo sapiens), Q15154 L1969T | disrupting interaction strength |
| Pericentriolar material 1 protein (Homo sapiens), Q15154 K1972A | with no effect |
| Pericentriolar material 1 protein (Homo sapiens), Q15154 V1966E | disrupting interaction strength |
| Pericentriolar material 1 protein (Homo sapiens), Q15154 T1974R | with no effect |
| Pericentriolar material 1 protein (Homo sapiens), Q15154 Q1956C | with no effect |
| Pericentriolar material 1 protein (Homo sapiens), Q15154 D1962I | disrupting interaction strength |
| Pericentriolar material 1 protein (Homo sapiens), Q15154 E1960V | decreasing interaction strength |
| Pericentriolar material 1 protein (Homo sapiens), Q15154 S1955Y | with no effect |
| Pericentriolar material 1 protein (Homo sapiens), Q15154 E1961Y | with no effect |
| Pericentriolar material 1 protein (Homo sapiens), Q15154 V1964E | with no effect |
| Pericentriolar material 1 protein (Homo sapiens), Q15154 V1964C | with no effect |
| Pericentriolar material 1 protein (Homo sapiens), Q15154 L1969M | with no effect |
| Pericentriolar material 1 protein (Homo sapiens), Q15154 E1961N | with no effect |
| Pericentriolar material 1 protein (Homo sapiens), Q15154 K1972E | with no effect |
| Pericentriolar material 1 protein (Homo sapiens), Q15154 I1954F | with no effect |
| Pericentriolar material 1 protein (Homo sapiens), Q15154 E1967K | with no effect |
| Pericentriolar material 1 protein (Homo sapiens), Q15154 S1955K | with no effect |
| Pericentriolar material 1 protein (Homo sapiens), Q15154 I1975K | with no effect |
| Pericentriolar material 1 protein (Homo sapiens), Q15154 K1972H | with no effect |
| Pericentriolar material 1 protein (Homo sapiens), Q15154 P1970Y | disrupting interaction strength |
| Pericentriolar material 1 protein (Homo sapiens), Q15154 E1967D | with no effect |
| Pericentriolar material 1 protein (Homo sapiens), Q15154 E1960Y | with no effect |
| Pericentriolar material 1 protein (Homo sapiens), Q15154 E1967V | with no effect |

Now from value to substance:

| effect of a mutation on the interaction | Substance |
| --- | --- |
| with no effect | Pericentriolar material 1 protein (Homo sapiens), Q15154 E1960R |
| decreasing interaction strength | Pericentriolar material 1 protein (Homo sapiens), Q15154 D1959K |
| with no effect | Pericentriolar material 1 protein (Homo sapiens), Q15154 E1967Q |
| with no effect | Pericentriolar material 1 protein (Homo sapiens), Q15154 D1959A |
| with no effect | Pericentriolar material 1 protein (Homo sapiens), Q15154 L1973K |
| with no effect | Pericentriolar material 1 protein (Homo sapiens), Q15154 S1958F |
| disrupting interaction strength | Pericentriolar material 1 protein (Homo sapiens), Q15154 V1966G |
| with no effect | Pericentriolar material 1 protein (Homo sapiens), Q15154 I1954S |
| decreasing interaction strength | Pericentriolar material 1 protein (Homo sapiens), Q15154 D1962H |
| with no effect | Pericentriolar material 1 protein (Homo sapiens), Q15154 T1974W |
| with no effect | Pericentriolar material 1 protein (Homo sapiens), Q15154 E1967R |
| with no effect | Pericentriolar material 1 protein (Homo sapiens), Q15154 K1965I |
| with no effect | Pericentriolar material 1 protein (Homo sapiens), Q15154 D1968C |
| with no effect | Pericentriolar material 1 protein (Homo sapiens), Q15154 G1952V |
| with no effect | Pericentriolar material 1 protein (Homo sapiens), Q15154 E1967T |
| with no effect | Pericentriolar material 1 protein (Homo sapiens), Q15154 D1962A |
| decreasing interaction strength | Pericentriolar material 1 protein (Homo sapiens), Q15154 P1970A |
| with no effect | Pericentriolar material 1 protein (Homo sapiens), Q15154 S1955M |
| decreasing interaction strength | Pericentriolar material 1 protein (Homo sapiens), Q15154 S1955V |
| with no effect | Pericentriolar material 1 protein (Homo sapiens), Q15154 D1962S |
| with no effect | Pericentriolar material 1 protein (Homo sapiens), Q15154 N1953E |
| with no effect | Pericentriolar material 1 protein (Homo sapiens), Q15154 L1969F |
